Test results: patent publication US20240301031A1 (JIANGSU HENGRUI PHARMACEUTICALS, published 2024)

How the values were obtained:
[1] = biological target: T1, BAFF (ACROBiosystems, BAF-H5248) (UniProt Q9Y275 134-285); assay: ELISA, fusion protein coated, BAFF titrated, Anti-His-HRP
T1 construct: Bought protein used in the ELISA with coated test sample
Procedure: The binding activity of the TACI fusion proteins for BAFF and APRIL was assayed by the ELISA method (coating a test fusion protein sample). The specific procedures were as follows:
The test sample was diluted to 2 μg/mL with a PBS (BasalMedia, B320) buffer at pH 7.4 and added to a 96-well microplate (Corning, 3590) at 100 μL/well. The plate was incubated at 4° C. overnight. After the liquid was discarded, 300 μL of 5% skim milk (BD, 232100) diluted with PBS was added to each well for blocking, and the plate was incubated at 37° C. for 2 h. After the blocking was completed, the blocking solution was discarded, and the plate was washed 3 times with a PBST buffer (PBS at pH 7.4 containing 0.1% tween-20). 100 μL of BAFF (ACROBiosystems, BAF-H5248) or APRIL (R&D Systems, 5860-AP-010/CF) diluted in a gradient was added to each well, and the plate was incubated at 37° C. for 1 h. After the incubation, the plate was washed 3 times with PBST. When detecting the binding to BAFF, 100 μL of Anti-His-HRP (Sino biological, 105327-MM02T-H, diluted at a ratio of 1:2000) was added to each well; when detecting the binding to APRIL, 100 μL of anti-HA-HRP (Abcam, ab1190, diluted at a ratio of 1:4000) was added to each well. The plate was incubated at 37° C. for 1 h. The plate was washed 3 times with PBST. 100 μL of TMB chromogenic substrate (KPL, 5120-0077) was added to each well, and the plate was incubated at room temperature for 10-15 min. The reaction was stopped by adding 50 μL of 1 M H₂SO₄ to each well. The plate was read for absorbance values at 450 nm on a microplate reader, the binding curves of the antibodies to an antigen were fitted with software, and the EC₅₀ values were calculated.

[2] = biological target: T2, IL-12/23 p40 (Sino biological, 10052-H08H) (UniProt P29460 23-328); assay: ELISA, IL-12/23 p40 coated
T2 construct: Bought protein
T2 sequence (looked up): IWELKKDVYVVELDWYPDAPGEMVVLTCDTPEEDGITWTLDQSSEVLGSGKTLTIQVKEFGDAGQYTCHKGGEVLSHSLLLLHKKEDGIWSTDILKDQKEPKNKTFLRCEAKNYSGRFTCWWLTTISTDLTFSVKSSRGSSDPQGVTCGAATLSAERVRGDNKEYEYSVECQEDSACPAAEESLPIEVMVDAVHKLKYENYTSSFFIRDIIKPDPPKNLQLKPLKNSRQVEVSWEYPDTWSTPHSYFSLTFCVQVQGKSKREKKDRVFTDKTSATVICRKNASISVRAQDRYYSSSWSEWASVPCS

[3] = biological target: BAFF (R&D Systems, 7537-BF) (UniProt Q9Y275 134-285); assay: cell-based or functional assay

EC50 [1]: 96.2 nM
binding result [2]: no binding
IC50 (nM) for the inhibition of the BAFF-induced B cell proliferation [3]: 0.382 nM
B1: RCT-18 (Telitacicept) (Fc fusion)
chain: SRVDQEERFPQGLWTGVAMRSCPEEQYWDPLLGTCMSCKTICNHQSQRTCAAFCRSLSCRKEQGKFYDHLLRDCISCASICGQHPKQCAYFCENKLRSPVNLPPELDKTHTCPPCPAPEAEGAPSVFLFPPKPKDTLMISRTPEVTCVVVDVSHEDPEVKFNWYVDGVEVHNAKTKPREEQYNSTYRVVSVLTVLHQDWLNGKEYKCKVSNKALPSSIEKTISKAKGQPREPQVYTLPPSRDELTKNQVSLTCLVKGFYPSDIAVEWESNGQPENNYKTTPPVLDSDGSFFLYSKLTVDKSRWQQGNVFSCSVMHEALHNHYTQKSLSLSPGK
notes: Positive control; TACI part is positions 13-118 of the extracellular region of human TACI, the rest is Fc
